Residue numbers refer to the chain shown, from its start. One block for each binder: values may come before it.
Tests used:
Test in all cases: SPR, Fab over captured mutant LAG-3-Fc;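 further: fc fusion variants captured on anti-human IgG Fc sensor, Fab injected with association then dissociation phases, KD obtained from Langmuir one-to-one fit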
[1] = target: T1, human LAG-3 domain 1-2 Fc fusion, point mutation #17 Q66A (human, UniProt P18627 23-266)
T1 construct: not shown: human IgG1 Fc, AA P101-K330
T1 sequence: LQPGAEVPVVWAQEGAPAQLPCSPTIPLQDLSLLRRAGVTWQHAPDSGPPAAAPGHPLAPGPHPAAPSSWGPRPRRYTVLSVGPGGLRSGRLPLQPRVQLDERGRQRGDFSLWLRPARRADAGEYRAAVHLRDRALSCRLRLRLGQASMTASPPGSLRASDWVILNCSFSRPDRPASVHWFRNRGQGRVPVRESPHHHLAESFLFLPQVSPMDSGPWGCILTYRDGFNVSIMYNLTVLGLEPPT

[2] = target: T2, human LAG-3 domain 1-2 Fc fusion, point mutation #37 S90A (human, UniProt P18627 23-266)
T2 construct: not shown: human IgG1 Fc, AA P101-K330
T2 sequence: T1 sequence with A44Q, S68A

[3] = target: T3, human LAG-3 domain 1-2 Fc fusion, point mutation #66 G126A (human, UniProt P18627 23-266)
T3 construct: not shown: human IgG1 Fc, AA P101-K330
T3 sequence: T1 sequence with A44Q, G104A

[4] = target: T4, human LAG-3 domain 1-2 Fc fusion, point mutation #7 P49A (human, UniProt P18627 23-266)
T4 construct: not shown: human IgG1 Fc, AA P101-K330
T4 sequence: T1 sequence with P27A, A44Q

[5] = target: T5, human LAG-3 domain 1-2 Fc fusion, point mutation #65 R125A (human, UniProt P18627 23-266)
T5 construct: not shown: human IgG1 Fc, AA P101-K330
T5 sequence: T1 sequence with A44Q, R103A

[6] = target: T6, human LAG-3 domain 1-2 Fc fusion, point mutation #45 R98A (human, UniProt P18627 23-266)
T6 construct: not shown: human IgG1 Fc, AA P101-K330
T6 sequence: T1 sequence with A44Q, R76A

[7] = target: T7, human LAG-3 domain 1-2 Fc fusion, point mutation #46 Y99A (human, UniProt P18627 23-266)
T7 construct: not shown: human IgG1 Fc, AA P101-K330
T7 sequence: T1 sequence with A44Q, Y77A

[8] = target: T8, human LAG-3 domain 1-2 Fc fusion, point mutation #48 V101A (human, UniProt P18627 23-266)
T8 construct: not shown: human IgG1 Fc, AA P101-K330
T8 sequence: T1 sequence with A44Q, V79A

[9] = target: T9, human LAG-3 domain 1-2 Fc fusion, point mutation #23 P76A (human, UniProt P18627 23-266)
T9 construct: not shown: human IgG1 Fc, AA P101-K330
T9 sequence: T1 sequence with A44Q, P54A

B1: Fab fragment of antibody 15011 (Fab, V domains shown, not shown: a dimerising Fc or GST)
VH: EVQLLESGGGLVQPGGSLRLSCAASGFDFRSYAMMWVRQAPGKGLEWVGGINGEVGGSNTYYAPAVKGRATISRDNSKNTLYLQMNSLRAEDTAVYYCVKGAGACGICNDDIDAWGQGTLVTVSS
VL: SYELTQDPAVSVALGQTVRITCSGAGSYAGSYYYGWHQQKPGQAPVTVIYDNDKRPSNIPDRFSGSSSGNTASLTITGAQAEDEADYYCGSTNDNDDGGLFGSGTKVTVLG
notes: monomeric Fab made by GingisKHAN digestion of the IgG1
- KD mutant/KD wild type [1]: 0.7 fold
- KD mutant/KD wild type [2]: 0.9 fold
- KD mutant/KD wild type [3]: 0.9 fold
- KD mutant/KD wild type [4]: 0.8 fold
- KD mutant/KD wild type [5]: 1.1 fold
- KD mutant/KD wild type [6]: 1.2 fold
- KD mutant/KD wild type [7]: 0.5 fold
- KD mutant/KD wild type [8]: 0.5 fold
- KD mutant/KD wild type [9]: 0.8 fold

B3: Fab fragment of antibody 15532 (Fab, V domains shown, not shown: a dimerising Fc or GST)
VH: QVQLQQWGAGLLRPSETLSLTCAVYGESFSGYYWNWIRQPPGKGLEWIGEINHSGSTNYNPSLKSRVTISVDTSKTQFSLKLSSVTAADTAVYYCARGWDLLDWNDYWNEYWGQGTLVTVSS
VL: EIVLTQSPATLSLSPGERATLSCRASQSVSSYLAWYQQKPGQAPRLLIYDASNRATGIPARFSGSGSGTDFTLTISSLEPEDFAVYYCQQRSNWPLTFGGGTKVEIKR
notes: as for B1
- KD mutant/KD wild type [1]: 2.7 fold
- KD mutant/KD wild type [2]: 0.6 fold
- KD mutant/KD wild type [3]: 0.9 fold
- KD mutant/KD wild type [4]: 1.7 fold
- KD mutant/KD wild type [5]: 0.9 fold
- KD mutant/KD wild type [6]: 1.6 fold
- KD mutant/KD wild type [7]: 4.1 fold
- KD mutant/KD wild type [8]: 3.5 fold
- KD mutant/KD wild type [9]: 1 fold

Second part, the binder after the results:

- binding result [1]: no binding (tested: 300 nM)
- KD mutant/KD wild type [2]: 0.8 fold
- KD mutant/KD wild type [3]: 0.9 fold
- binding result [4]: no binding (tested: 300 nM)
- KD mutant/KD wild type [5]: 1.1 fold
- KD mutant/KD wild type [6]: 0.9 fold
- binding result [7]: no binding (tested: 300 nM)
- binding result [8]: no binding (tested: 300 nM)
- KD mutant/KD wild type [9]: 0.6 fold
B2: Fab fragment of antibody 15572 (Fab, V domains shown, not shown: a dimerising Fc or GST)
VH: QLQLQESGPGLVKPSETLSLTCTVSGDSISSSSYYWGWIRQPPGKGLEWIGSIFYSGNTYYNPSLKSRVTISVDTSKNQFSLKLSSVTAADTAVYYCAREDDFLTDYYGAFDIWGQGTMVTVSS
VL: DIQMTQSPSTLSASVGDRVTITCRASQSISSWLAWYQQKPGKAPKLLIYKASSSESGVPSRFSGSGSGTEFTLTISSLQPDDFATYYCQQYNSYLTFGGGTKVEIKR
notes: as for B1

- binding result [1]: no binding (tested: 300 nM)
- KD mutant/KD wild type [2]: 0.9 fold
- KD mutant/KD wild type [3]: 0.9 fold
- binding result [4]: no binding (tested: 300 nM)
- KD mutant/KD wild type [5]: 1.1 fold
- binding result [6]: no binding (tested: 300 nM)
- binding result [7]: no binding (tested: 300 nM)
- binding result [8]: no binding (tested: 300 nM)
- KD mutant/KD wild type [9]: 0.7 fold
B4: Fab fragment of antibody 15431 (Fab, V domains shown, not shown: a dimerising Fc or GST)
VH: QVQLQQSGPGLVKPSQTLSLTCAISGDSVSSNSAAWNWIRQSPSRGLEWLGRTYYRSKWYNDYAVSVKSRITINPDTSKNQFSLQLNSVTPEDTAVYYCARDDDWNDFDYWGQGTLVTVSS
VL: B3 VL
notes: as for B1
